In PMC3857245:

Target: 3xFLAG-tagged rat KCNQ2 (rat) (UniProt O88943)
Test: co-IP; KCNQ2-CaM complex immunoprecipitated in calcium (–) condition, the resin then exposed to 500 µM Ca2+; time course of CaM left on KCNQ2

Sequence of UniProt O88943 (O88943 whole entry): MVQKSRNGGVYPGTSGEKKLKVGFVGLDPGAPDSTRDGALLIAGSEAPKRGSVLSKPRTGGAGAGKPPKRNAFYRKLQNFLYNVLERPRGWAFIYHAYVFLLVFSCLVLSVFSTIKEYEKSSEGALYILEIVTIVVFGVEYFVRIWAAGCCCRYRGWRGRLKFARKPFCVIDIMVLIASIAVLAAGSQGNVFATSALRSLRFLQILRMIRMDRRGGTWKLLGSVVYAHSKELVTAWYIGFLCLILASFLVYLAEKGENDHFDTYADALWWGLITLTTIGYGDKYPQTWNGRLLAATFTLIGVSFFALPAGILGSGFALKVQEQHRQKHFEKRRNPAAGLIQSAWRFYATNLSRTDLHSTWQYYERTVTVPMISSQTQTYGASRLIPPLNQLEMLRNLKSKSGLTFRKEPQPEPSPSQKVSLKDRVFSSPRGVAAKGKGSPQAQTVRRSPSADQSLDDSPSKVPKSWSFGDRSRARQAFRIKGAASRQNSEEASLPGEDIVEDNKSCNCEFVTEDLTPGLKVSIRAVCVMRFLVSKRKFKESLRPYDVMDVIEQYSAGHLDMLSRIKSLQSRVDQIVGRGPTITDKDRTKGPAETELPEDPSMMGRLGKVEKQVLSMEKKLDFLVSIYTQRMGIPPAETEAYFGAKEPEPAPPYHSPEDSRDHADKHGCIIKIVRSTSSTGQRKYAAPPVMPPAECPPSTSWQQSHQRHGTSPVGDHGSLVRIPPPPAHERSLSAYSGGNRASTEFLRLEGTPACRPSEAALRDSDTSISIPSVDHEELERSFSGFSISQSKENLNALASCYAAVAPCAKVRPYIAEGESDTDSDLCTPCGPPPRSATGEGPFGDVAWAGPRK

time constant of calcium-induced dissociation: 20.7 s
Substance: V5-epitope tagged calmodulin (from UniProt P0DP23 1-149) (natural protein)
